In patent US20100099142:
Where a chain is given by its changes, count along the chain named. In names and notes the source's numbering stands.

Biological target: Met-hIL-21, Q9HBE4
Sequence (Q9HBE4 whole entry, looked up): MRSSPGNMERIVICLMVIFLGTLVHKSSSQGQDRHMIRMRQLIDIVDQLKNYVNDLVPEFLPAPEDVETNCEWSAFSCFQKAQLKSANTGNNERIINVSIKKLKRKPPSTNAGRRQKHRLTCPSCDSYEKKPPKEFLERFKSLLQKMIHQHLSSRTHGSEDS

B1: hexa-His-Xa-Met-AP M206A, Q233A (protein)
chain: MAISIKTPEDIEKMRVAGRLAAEVLEMIEPYVKPGVSTGELDRICNDYIVNEQHAVSACLGYHGYPKSVCISINEVVCHGIPDDAKLLKDGDIVNIDVTVIKDGFHGDTSKMFIVGKPTIMGERLCRITQESLYLALRMVKPGINLREIGAAIQKFVEAEGFSVVREYCGHGIGRGFHEEPQVLHYDSRETNVVLKPGMTFTIEPAVNAGKKEIRTMKDGWTVKTKDRSLSAAYEHTIVVTDNGCEILTLRKDDTIPAIISHDE
Met-free hIL-21 generated (removal of initiator Met, enzyme activity): ˜65% Met-free hIL-21 | cleavage of Met-hIL-21 in 44 h (enzyme activity): In 44 h. more than 90% cleavage of Met-hIL-21 could be observed | removal of initiator Methionine, assayed by MALDI-TOF: removal of Methionine from Met-IL21 below detection limits of Met-IL21 could be performed

B2: Met-AP (M206A) (protein)
chain: B1 chain with A233Q
removal of initiator Methionine, assayed by MALDI-TOF: removal of Methionine from Met-IL21 below detection limits of Met-IL21 could be performed
